Patent US10865390B2, “Alcohol dehydrogenase mutant and application thereof in synthesis of diaryl chiral alcohols” (Jiangnan University, priority 2018, dated 2020)
Where “and” joins values, the source holds several entries; their conditions need not be identical. Equal entries are not always repeated.

Tests used:
Assay type in all cases: biochemical
[1] = system: O=C(c1ccc(Cl)cc1)c1ccccn1; assay: Kinetic analysis of KpADH mutant M4 with CPMK; details: other: M4, NADPH, pH 7.0, 30° C.
Experimental: (§1) In an embodiment of the present disclosure, the mutant includes the substitution of glycine for glutamic acid at position 214 of the amino acid sequence shown in SEQ ID No. 2, the substitution of cysteine for serine at position 237, and the substitution of asparaginate for glutamine at position 136, which is named M4.
(§2) Adopting a total reaction system of 200 μL including: 1.0 mM NADPH, 1.0 mM substrate CPMK and sodium phosphate buffer (PBS, 100 mM, pH 7.0), fully and evenly mixing, maintaining at 30° C. for 2 min, adding an appropriate amount of enzyme solution, and detecting the change in light absorption at 340 nm.
(§3) The enzyme activity was calculated by the following formula: Enzyme activity (U)=EW×V×10^3/(6220×1);
(§4) in the formula, EW is the change in absorbance at 340 nm in 1 min; V is the volume of a reaction solution in mL; 6220 is the molar extinction coefficient of NADPH in L/(mol·cm); and 1 is the optical path distance in cm. One activity unit (U) corresponds to the amount of enzyme required to catalyze the oxidation of 1 μmol NADPH per minute under the above conditions.
(§5) A column used for purification was a nickel affinity column HisTrap FF crude, and purification was achieved through affinity chromatography using a histidine tag on recombinant protein. The nickel column was equilibrated with a solution A first, a crude enzyme solution was loaded, a penetrating peak was further eluted off using the solution A, and after equilibrium, a solution B (20 mM sodium phosphate, 500 mM NaCl, and 1000 mM imidazole, pH 7.4) was used for gradient elution to elute off the recombinant protein bound to the nickel column, so as to obtain the recombinant alcohol dehydrogenase mutant. The purified protein was subjected to activity measurement (CPMK as substrate, and NADPH as coenzyme) and SDS-PAGE analysis. […] The purified alcohol dehydrogenase protein was then replaced into a Tris-HCl (100 mM, pH 7.0) buffer using a Hi Trap Desalting column (GE Healthcare).
(§6) The activity of KpADH at different substrate concentrations and coenzyme concentrations was determined, and a double reciprocal curve was made based on the reciprocal of activity and substrate concentration to calculate kinetic parameters.

[2] = system: O=C(c1ccc(Cl)cc1)c1ccccn1; assay: Kinetic analysis of KpADH mutant M2 with CPMK; details: other: M2, NADPH, pH 7.0, 30° C.
Experimental: In an embodiment of the present disclosure, the mutant includes the substitution of valine for glutamic acid at position 214 of the alcohol dehydrogenase with the amino acid sequence shown in SEQ ID No. 2, which is named M2.
as §2, §3, §4, §5, §6

[3] = system: O=C(c1ccc(Cl)cc1)c1ccccn1; assay: Kinetic analysis of KpADH mutant M6 with CPMK; details: other: M6, NADPH, pH 7.0, 30° C.
Experimental: as §1, with “237,” for “237, and”, “136, the substitution of glycine for serine at position 196, and the substitution of valine for phenylalanine at position 161,” for “136,”, “M6.” for “M4.”
as §2, §3, §4, §5, §6

[4] = system: O=C(c1ccc(Cl)cc1)c1ccccn1; assay: Kinetic analysis of KpADH mutant M3 with CPMK; details: other: M3, NADPH, pH 7.0, 30° C.
Experimental: In an embodiment of the present disclosure, the mutant includes the substitution of glycine for glutamic acid at position 214 of the alcohol dehydrogenase with the amino acid sequence shown in SEQ ID No. 2, and the substitution of cysteine for serine at position 237, which is named M3.
as §2, §3, §4, §5, §6

[5] = system: O=C(c1ccc(Cl)cc1)c1ccccn1; assay: Kinetic analysis of KpADH mutant M1 with CPMK; details: other: M1, NADPH, pH 7.0, 30° C.
Experimental: In an embodiment of the present disclosure, the mutant includes the substitution of glycine for glutamic acid at position 214 of the alcohol dehydrogenase with the amino acid sequence shown in SEQ ID No. 2, which is named M1.
as §2, §3, §4, §5, §6

[6] = Stereoselectivity analysis of CPMK reduction (chiral liquid chromatography, Table 1); details: product CPMA from CPMK
Experimental: (§7) In an embodiment of the present disclosure, the (R)- and (S)-CPMA is chromatographed by taking 100 μL reaction solution, adding 500 μL ethyl acetate, shaking for 1-2 min, centrifuging at 12,000 rpm for 2-5 min, placing a supernatant into a centrifuge tube, and after an organic phase is naturally volatilized completely, adding 500 μL chromatographic pure ethanol for chiral liquid chromatography of a conversion rate and an ee value. The specific chromatographic conditions are as follows: Daicel Chiralcel OB-H (5 μm, 250 mm×4.6 mm) liquid chromatography column, mobile phases are n-hexane: ethanol: ethanolamine (90:10:0.01, v/v/v), the flow rate is 1 mL/min, the column temperature is 30° C., the UV detection wavelength is 254 nm, the injection volume is 10 μL, and the retention time for (R)-CPMA and that for (S)-CPMA are 11.14 min and 12.34 min respectively.
Method for determining optical purity ee:
As: molar concentration of (S)-CPMA obtained by liquid chromatography; and AR: molar concentration of (R)-CPMA obtained by liquid chromatography.
as §6

[7] = Substrate specificity: reduction of prochiral carbonyl compound (Table 2)
Description: The reduction on prochiral carbonyl compounds by the alcohol dehydrogenase mutants obtained in Example 2 was studied, and the studied prochiral carbonyl compounds include (4-chlorophenyl)-(pyridin-2-yl)-methanone (CPMK), phenyl-(pyridin-2-yl)-methanone, (4-chlorophenyl)-(phenyl)-methanone, (4-bromophenyl)-(phenyl)-methanone, (4-fluorophenyl)-(pyridin-2-yl)-methanone, (4-methoxyphenyl)-(phenyl)-methanone, acetophenone, 4-chloroacetophenone and 2-(4-chlorophenyl)acetyl chloride.

[8] = 20 mL biocatalytic system: asymmetric reduction of CPMK
Experimental: as §7
A 20 mL biocatalytic system was established: 100 mM potassium phosphate buffer (pH 7.0), and the alcohol dehydrogenase mutants M6 and M7 obtained in Example 2 as well as wild KpADH 10 g/L, CPMK 100 mM, 200 mM and 500 mM were added (substrate added in batches). […]

“alcohol dehydrogenase KpADH mutant M4 (E214G/S237C/Q136N of SEQ ID No. 2) (Vanderwaltozyma polyspora DSM 70294; E214G/Q136N/S237C)” showed a Km [1] of 861 µM, a Vmax [1] of 10.2 µmol/min/mg and a kcat [1] of 6.76 s⁻¹. For the same molecule, the kcat/Km [1] was 7850 M⁻¹ s⁻¹.

“alcohol dehydrogenase KpADH mutant M2 (E214V of SEQ ID No. 2) (Vanderwaltozyma polyspora DSM 70294; E214V)” showed a Km [2] of 574 µM, a Vmax [2] of 17.5 µmol/min/mg and a kcat [2] of 11.7 s⁻¹. The kcat/Km [2] was 14200 M⁻¹ s⁻¹.

For “alcohol dehydrogenase KpADH mutant M6 (E214G/S237C/Q136N/S196G/F161V of SEQ ID No. 2) (Vanderwaltozyma polyspora DSM 70294; E214G/F161V/Q136N/S196G/S237C)”, the Km [3] was 1120 µM, the Vmax [3] was 25.2 µmol/min/mg and the kcat [3] was 20.1 s⁻¹. For the same molecule, the kcat/Km [3] was 17900 M⁻¹ s⁻¹.

In the case of “alcohol dehydrogenase KpADH mutant M3 (E214G/S237C of SEQ ID No. 2) (Vanderwaltozyma polyspora DSM 70294; E214G/S237C)”, the Km [4] is reported as 632 µM, the Vmax [4] is reported as 9.32 µmol/min/mg and the kcat [4] is reported as 6.16 s⁻¹. The kcat/Km [4] was 9740 M⁻¹ s⁻¹.

Molecule “alcohol dehydrogenase KpADH mutant M1 (E214G of SEQ ID No. 2) (Vanderwaltozyma polyspora DSM 70294; E214G)” has a Km [5] of 520 µM, a Vmax [5] of 11.1 µmol/min/mg and a kcat [5] of 7.32 s⁻¹. For the same molecule, the kcat/Km [5] was 14100 M⁻¹ s⁻¹.

B1: KpADH: wild type alcohol dehydrogenase KpADH, amino acid sequence shown in SEQ ID No. 2 (protein)
chain: MSVLISGASGYIAKHIVRVLLEQNYKVIGTVRSQDKADKLLKQYNNPNLSYEIVPEIANLDAFDDIFKKHGKEIKYVIHAASPVNFGAKDLEKDLVIPAINGTKNMFEAIKKYAPDTVERVVMTASYASIMTPHRQNDPTLTLDEETWNPVTEENAYENVFTAYCASKTFAEKEAWKFVKENSDAVKFKLTTIHPSFVFGPQNFDEDVTKKLNETCEIINGLLHAPFDTKVEKTHFSQFIDVRDVAKTHVLGFQKDELINQRLLLCNGAFSQQDIVNVFNEDFPELKGQFPPEDKDTDLNKGVTGCKIDNEKTKKLLAFEFTPFHKTIHDTVYQILHKEGRV
modifications: Protein translated from synthetic DNA
In the case of B1, the ee [6] is reported as 82% and 82.5%, the “ee value of product” value ([7]; substrate drawing 1 (CPMK)) is reported as 81.9% and the “ee value of product” value ([7]; substrate drawing 2) is reported as 26.3%. The “ee value of product” value ([7]; substrate drawing 3) was 71.4%, the “ee value of product” value ([7]; substrate drawing 4) was 69.2% and the “ee value of product” value ([7]; substrate drawing 5) was 25.3%. For the same molecule, the “ee value of product” value ([7]; substrate drawing 6) was 14.9%, the “ee value of product” value ([7]; substrate drawing 7) was 59.2% and the “ee value of product” value ([7]; substrate drawing 8) was 67.1%. The “ee value of product” value ([7]; substrate drawing 9) was 77.8%, the “ee value of final reduction product” value ([8]; 20 mL biocatalytic system, enzyme 10 g/L, 30° C., pH 7.5) was 82% and the Conversion rate ([8]; CPMK 100 mM, reaction time 1 h) was 47.76%. For the same molecule, the Conversion rate ([8]; CPMK 100 mM, reaction time 2 h) was 77.9%, the Conversion rate ([8]; CPMK 100 mM, reaction time 3 h) was 87.1% and the Conversion rate ([8]; CPMK 100 mM, reaction time 4 h) was 96.5%. The Conversion rate ([8]; CPMK 100 mM, reaction time 6 h) was 98.7%, the Conversion rate ([8]; CPMK 100 mM, reaction time 8 h) was 99.6% and the Conversion rate ([8]; CPMK 100 mM, reaction time 12 h) was >99.9%. The Conversion rate ([8]; CPMK 100 mM, reaction time 24 h) was >99.9%, the Conversion rate ([8]; CPMK 200 mM, reaction time 1 h) was 25.6% and the Conversion rate ([8]; CPMK 200 mM, reaction time 2 h) was 36.9%. The Conversion rate ([8]; CPMK 200 mM, reaction time 3 h) was 50.5%, the Conversion rate ([8]; CPMK 200 mM, reaction time 4 h) was 62.8% and the Conversion rate ([8]; CPMK 200 mM, reaction time 6 h) was 85.3%. The Conversion rate ([8]; CPMK 200 mM, reaction time 8 h) was 97.4%, the Conversion rate ([8]; CPMK 200 mM, reaction time 12 h) was 99.4% and the Conversion rate ([8]; CPMK 200 mM, reaction time 24 h) was 99.7%. For the same molecule, the Conversion rate ([8]; CPMK 500 mM, reaction time 1 h) was 11.7%, the Conversion rate ([8]; CPMK 500 mM, reaction time 2 h) was 20.1% and the Conversion rate ([8]; CPMK 500 mM, reaction time 3 h) was 44.8%. The Conversion rate ([8]; CPMK 500 mM, reaction time 4 h) was 59.6%, the Conversion rate ([8]; CPMK 500 mM, reaction time 6 h) was 80.2% and the Conversion rate ([8]; CPMK 500 mM, reaction time 8 h) was 93.2%. For the same molecule, the Conversion rate ([8]; CPMK 500 mM, reaction time 12 h) was 95.6%, the Conversion rate ([8]; CPMK 500 mM, reaction time 24 h) was 99.2% and the “time required to achieve a conversion rate close to 99.9%” value ([8]; CPMK concentration 200 mM) was 12 h.
